Assay results as given in article PMC6030200.

What was measured:
[1] = biological target: recombinant human integrin α6β4 (human) (UniProt P23229); assay: SPR; Biacore T200; integrin α6β4 or α6β1 immobilised by EDC/NHS coupling on CM5 chips (about 16000 RU); seven 2-fold dilutions of PB injected 120 s at 30 µl/minute, 120 s dissociation; 10 mM HEPES, 150 mM NaCl, 1 mM CaCl2, 1 mM MgCl2, 0.05% P20, pH 7.4; 25 °C
[2] = biological target: recombinant human integrin α6β1 (human) (UniProt P23229); assay: as above
[3] = biological target: HAdV-41 penton base protein, recombinant, soluble (human adenovirus type 41 (HAdV-41)); assay: negative-stain electron microscopy
[4] = biological target: HAdV-41 penton base protein, recombinant, soluble (human adenovirus type 41 (HAdV-41)); assay: gas-phase electrophoretic mobility macromolecular analysis (GEMMA)

recombinant human integrin α6β4 (human), sequence (P23229 24-1130, chain 1 of 2): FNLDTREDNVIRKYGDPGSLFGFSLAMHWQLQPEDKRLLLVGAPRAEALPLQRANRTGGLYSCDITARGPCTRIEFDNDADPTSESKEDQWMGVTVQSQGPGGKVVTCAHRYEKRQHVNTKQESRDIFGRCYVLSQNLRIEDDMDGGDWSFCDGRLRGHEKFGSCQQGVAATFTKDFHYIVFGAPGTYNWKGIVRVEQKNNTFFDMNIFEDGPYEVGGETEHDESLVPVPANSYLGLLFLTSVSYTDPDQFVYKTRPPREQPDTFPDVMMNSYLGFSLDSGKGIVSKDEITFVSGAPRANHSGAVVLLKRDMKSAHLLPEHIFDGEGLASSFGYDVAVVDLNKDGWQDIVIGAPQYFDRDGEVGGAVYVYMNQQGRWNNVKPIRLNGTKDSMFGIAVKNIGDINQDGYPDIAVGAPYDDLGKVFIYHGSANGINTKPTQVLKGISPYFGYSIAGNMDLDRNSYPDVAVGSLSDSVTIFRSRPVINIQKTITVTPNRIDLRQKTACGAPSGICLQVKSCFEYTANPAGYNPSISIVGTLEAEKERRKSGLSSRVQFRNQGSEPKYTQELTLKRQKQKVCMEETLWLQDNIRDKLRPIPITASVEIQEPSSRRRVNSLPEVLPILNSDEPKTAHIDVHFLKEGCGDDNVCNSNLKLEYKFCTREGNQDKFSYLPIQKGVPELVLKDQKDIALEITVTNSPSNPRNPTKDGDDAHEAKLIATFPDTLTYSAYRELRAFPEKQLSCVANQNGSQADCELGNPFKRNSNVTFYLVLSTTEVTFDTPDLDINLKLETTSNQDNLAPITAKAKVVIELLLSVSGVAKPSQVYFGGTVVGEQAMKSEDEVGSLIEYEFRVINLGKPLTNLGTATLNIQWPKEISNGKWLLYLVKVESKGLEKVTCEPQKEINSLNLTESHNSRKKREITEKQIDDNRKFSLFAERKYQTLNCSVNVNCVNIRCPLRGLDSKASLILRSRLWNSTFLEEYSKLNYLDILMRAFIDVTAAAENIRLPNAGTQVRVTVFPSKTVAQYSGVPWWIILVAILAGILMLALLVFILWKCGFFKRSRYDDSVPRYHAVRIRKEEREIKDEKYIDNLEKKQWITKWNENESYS
recombinant human integrin α6β4 (human), sequence (P16144 28-710, chain 2 of 2, further chain): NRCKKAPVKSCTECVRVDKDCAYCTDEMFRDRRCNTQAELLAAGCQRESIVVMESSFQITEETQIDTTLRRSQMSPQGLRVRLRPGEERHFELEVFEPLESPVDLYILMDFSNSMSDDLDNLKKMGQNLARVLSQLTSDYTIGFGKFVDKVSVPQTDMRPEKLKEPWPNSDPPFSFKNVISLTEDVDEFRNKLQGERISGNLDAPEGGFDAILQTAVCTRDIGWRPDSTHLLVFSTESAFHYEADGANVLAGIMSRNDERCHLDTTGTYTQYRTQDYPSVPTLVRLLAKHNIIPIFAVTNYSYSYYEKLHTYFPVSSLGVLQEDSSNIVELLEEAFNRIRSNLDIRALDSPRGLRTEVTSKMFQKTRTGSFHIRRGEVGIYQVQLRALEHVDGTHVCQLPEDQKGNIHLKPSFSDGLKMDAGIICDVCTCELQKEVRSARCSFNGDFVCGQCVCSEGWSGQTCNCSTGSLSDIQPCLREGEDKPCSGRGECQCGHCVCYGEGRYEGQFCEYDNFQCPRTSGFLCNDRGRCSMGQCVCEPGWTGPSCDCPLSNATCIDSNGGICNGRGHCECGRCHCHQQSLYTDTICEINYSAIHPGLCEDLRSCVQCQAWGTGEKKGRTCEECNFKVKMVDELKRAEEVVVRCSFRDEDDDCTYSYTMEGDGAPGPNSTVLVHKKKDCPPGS

| Substance | fold lower affinity than 40PB and 41PB [1] [fold] | fold lower affinity than 40PB and 41PB [2] [fold] | fold lower affinity than to α6β4 [2] [fold] | koff [2] [s⁻¹] | kon [2] [M⁻¹ s⁻¹] | stoichiometry N [3] | stoichiometry N [4] |
| --- | --- | --- | --- | --- | --- | --- | --- |
| HAdV-5 penton base protein, recombinant, soluble (from UniProt P12538 1-571) (natural protein) | 3 | 3 | – | – | – | – | – |
| HAdV-40 penton base protein, recombinant, soluble (natural protein) | – | – | 10 | 0.1 | – | – | – |
| HAdV-41 penton base protein, recombinant, soluble (natural protein) | – | – | 10 | – | 10000 | 5 | 5 |
